Measurements as given in publication PMC3153611.

Molecular target: SRPK1 (UniProt Q96SB4)
Test: rapid quench single-turnover, fast-phase amplitude
Conditions: reference: 0P complex (no pre-phosphorylation)

other: fast-phase amplitude αp at 1 µM SRPK1 | Substance
same; reference 1.0 ± 0.18 | SRSF1 (aka ASF/SF2) (from UniProt Q07955) 4P complex (4 phosphates in RS1)
weaker; reference 1.0 ± 0.18 | SRSF1 (aka ASF/SF2) (from UniProt Q07955) 8P complex (8.3 phosphates in RS1)
weaker; reference 1.0 ± 0.18 | SRSF1 (aka ASF/SF2) (from UniProt Q07955) 6P complex (6.3 phosphates in RS1)
same; reference 1.0 ± 0.18 | SRSF1 (aka ASF/SF2) (from UniProt Q07955) 1P complex (1.2 phosphates in RS1)
